Assay results: publication PMC7613265

Key:
[1] = target: RNase E (1-850), catalytically inactive, truncated degradosome scaffold;RhlB;Enolase D303N;D346N (Escherichia coli;Escherichia coli;Escherichia coli) (UniProt P21513+P0A8J8+P0A6P9); assay: SEC-SAXS; details: SEC-SAXS buffer not given in the material. EMSA (30S ribosomal subunit, not listed because it is a ribonucleoprotein): 40 mM Tris-HCl pH 7.5, 100 mM NaCl …
[2] = target: RNase E (1-850) (E. coli) (UniProt P21513); assay: AUC; sedimentation velocity, truncated degradosome at 4 mg/ml in buffer S6 (50 mM Tris-HCl pH 7.5, 400 mM NaCl, 100 mM KCl, 5 mM MgCl2, 1 mM TCEP, 0.02% beta-DDM, 10% glycerol), 4 C

Row | Substance | binding [1] | stoichiometry N [2]
1 | GAAGCUGUUUUGGCGGAUGAGAGAAGAUUUUCAGCCUGAUACAGAUUAAAUCAGAACGCAGAAGCGGUCUGAUAAAACAGAAUUUGCCUGGCGGCAGUAGCGCGGUGGUCCCACCUGACCCCAUGCCGAACUCAGAAGUGAAACGCCGUAGCGCCGAUGGUAGUGUGGGGUCUCCCCAUGCGAGAGUAGGGAACUGCCAGGCAUCAAAUAAAACGAAAGGCUCAGUCGAAAGACUGGGCCUUUCG [9S RNA (5S rRNA precursor)] | binds | –
2 | RNase E (1-850) (from UniProt P21513 1-850) (domain or fragment) | – | 4
